Molecular target: T1, human GIP receptor (human, UniProt P48546 22-466)
T1 sequence (looked up): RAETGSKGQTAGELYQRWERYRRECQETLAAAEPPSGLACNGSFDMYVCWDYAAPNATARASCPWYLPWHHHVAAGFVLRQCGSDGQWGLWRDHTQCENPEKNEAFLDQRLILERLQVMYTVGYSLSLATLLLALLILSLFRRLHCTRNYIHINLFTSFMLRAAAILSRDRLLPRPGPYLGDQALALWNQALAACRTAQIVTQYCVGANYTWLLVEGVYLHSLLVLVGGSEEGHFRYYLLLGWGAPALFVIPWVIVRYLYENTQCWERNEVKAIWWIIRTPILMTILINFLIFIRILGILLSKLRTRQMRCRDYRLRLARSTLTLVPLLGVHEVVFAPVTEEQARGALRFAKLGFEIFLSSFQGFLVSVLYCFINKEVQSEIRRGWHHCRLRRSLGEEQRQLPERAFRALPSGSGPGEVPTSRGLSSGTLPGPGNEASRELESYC
Assay: cell-based or functional assay

Binder	cAMP antagonism [nM]	cAMP antagonism % inhib [%]	cAMP antagonism log [log M]
TFISDYKIAMDKIHQQDFVNWLLAQKGKKNDWK (HELM PEPTIDE1{T.F.I.S.D.Y.K.I.A.M.D.K.I.H.Q.Q.D.F.V.N.W.L.L.A.Q.K.G.K.K.N.D.W.K}|PEPTIDE2{[O=C(O)CCCCCCCCCCCCCCC(=O)[*:2]].[gGlu]}$PEPTIDE1,PEPTIDE2,7:R3-2:R2$$$V2.0; N-terminus assumed; SMILES CC[C@H](C)[C@H](NC(=O)[C@H](CCCCNC(=O)CC[C@H](NC(=O)CCCCCCCCCCCCCCC(=O)O)C(=O)O)NC(=O)[C@H](Cc1ccc(O)cc1)NC(=O)[C@H](CC(=O)O)NC(=O)[C@H](CO)NC(=O)[C@@H](NC(=O)[C@H](Cc1ccccc1)NC(=O)[C@@H](N)[C@@H](C)O)[C@@H](C)CC)C(=O)N[C@@H](C)C(=O)N[C@@H](CCSC)C(=O)N[C@@H](CC(=O)O)C(=O)N[C@@H](CCCCN)C(=O)N[C@H](C(=O)N[C@@H](Cc1c[nH]cn1)C(=O)N[C@@H](CCC(N)=O)C(=O)N[C@@H](CCC(N)=O)C(=O)N[C@@H](CC(=O)O)C(=O)N[C@@H](Cc1ccccc1)C(=O)N[C@H](C(=O)N[C@@H](CC(N)=O)C(=O)N[C@@H](Cc1c[nH]c2ccccc12)C(=O)N[C@@H](CC(C)C)C(=O)N[C@@H](CC(C)C)C(=O)N[C@@H](C)C(=O)N[C@@H](CCC(N)=O)C(=O)N[C@@H](CCCCN)C(=O)NCC(=O)N[C@@H](CCCCN)C(=O)N[C@@H](CCCCN)C(=O)N[C@@H](CC(N)=O)C(=O)N[C@@H](CC(=O)O)C(=O)N[C@@H](Cc1c[nH]c2ccccc12)C(=O)N[C@@H](CCCCN)C(=O)O)C(C)C)[C@@H](C)CC) [AT459]	31	88	-7.5
TFISDYKIAMDKIHQQDFVNWLLAQKGKKNDWKH (HELM PEPTIDE1{T.F.I.S.D.Y.K.I.A.M.D.K.I.H.Q.Q.D.F.V.N.W.L.L.A.Q.K.G.K.K.N.D.W.K.H}|PEPTIDE2{[O=C(O)CCCCCCCCCCCCCCC(=O)[*:2]].[gGlu]}$PEPTIDE1,PEPTIDE2,7:R3-2:R2$$$V2.0; N-terminus assumed; SMILES CC[C@H](C)[C@H](NC(=O)[C@H](CCCCNC(=O)CC[C@H](NC(=O)CCCCCCCCCCCCCCC(=O)O)C(=O)O)NC(=O)[C@H](Cc1ccc(O)cc1)NC(=O)[C@H](CC(=O)O)NC(=O)[C@H](CO)NC(=O)[C@@H](NC(=O)[C@H](Cc1ccccc1)NC(=O)[C@@H](N)[C@@H](C)O)[C@@H](C)CC)C(=O)N[C@@H](C)C(=O)N[C@@H](CCSC)C(=O)N[C@@H](CC(=O)O)C(=O)N[C@@H](CCCCN)C(=O)N[C@H](C(=O)N[C@@H](Cc1c[nH]cn1)C(=O)N[C@@H](CCC(N)=O)C(=O)N[C@@H](CCC(N)=O)C(=O)N[C@@H](CC(=O)O)C(=O)N[C@@H](Cc1ccccc1)C(=O)N[C@H](C(=O)N[C@@H](CC(N)=O)C(=O)N[C@@H](Cc1c[nH]c2ccccc12)C(=O)N[C@@H](CC(C)C)C(=O)N[C@@H](CC(C)C)C(=O)N[C@@H](C)C(=O)N[C@@H](CCC(N)=O)C(=O)N[C@@H](CCCCN)C(=O)NCC(=O)N[C@@H](CCCCN)C(=O)N[C@@H](CCCCN)C(=O)N[C@@H](CC(N)=O)C(=O)N[C@@H](CC(=O)O)C(=O)N[C@@H](Cc1c[nH]c2ccccc12)C(=O)N[C@@H](CCCCN)C(=O)N[C@@H](Cc1c[nH]cn1)C(=O)O)C(C)C)[C@@H](C)CC) [AT460]	40	100	-7.4
